Source: patent publication US20180251563A1 (SUBDOMAIN, published 2018)
Changes are numbered by the printed parent chain.

Experiments:
PD-L1-Fc = target: T1, PD-L1-Fc (UniProt Q9NZQ7 19-238); experiment: ELISA, purified FLAG-tagged protein on PD-L1-Fc coated wells
T1 construct: purified recombinant target-Fc protein; also called FC-PD-L1; not shown: Fc

[1] = target: T2, recombinant, biotinylated, Human 4-1BB/TNFRSF9/CD137-Fc (human, UniProt Q07011 24-186, biotinylated (F2NNK selection)); experiment: phage ELISA, target-Fc against non-specific control (IgG Fc)
T2 construct: also called 4-1BB/CD137; not shown: Fc
Source text: The F2NNK DBD library was used in five rounds of selection against recombinant, biotinylated, Human 4-1BB/TNFRSF9/CD137-Fc.

TIM3-Fc = target: T3, TIM3-Fc (UniProt Q8TDQ0 22-200); experiment: phage ELISA, target-Fc against non-specific control
T3 construct: purified recombinant target-Fc protein; not shown: Fc
Procedure: (§1) Selections were also performed using F1, F2, F3, C1 & C2 trinucleotide phosphoramidite libraries. In most cases, libraries were pooled prior to use in selection. By combining equal volumes of the individual libraries, Pool F (libraries F1, F2 and F3) and Pool C (libraries C1 and C2) were generated. These libraries were used in selections for DBDpp binders to 4-1BB/CD137 as well as a larger panel of purified recombinant “target”-Fc proteins, including CD47, CTLA4, DR5, KIR, LAG3, OX40, PD1, PD-L1 and TIM3. (Many of these targets are considered immuno-regulatory factors (Pardoll et al., Nat. Rev. Cancer 12:252-264 (2012)). After incubation of the target with the pools of DBDpp phage libraries, bound phage-target complexes were captured and separated from unbound phage with protein A beads (target proteins were Fc fusions). After three rounds of selection, rescued phage clones were screened by ELISA for binding to the selected target.
(§2) For each target, approximately 90 DBDpp phage clones were screened by ELISA for binding to the target protein and as well as a non-specific control (e.g., IgG1-Fc). […] In some instances, for the ELISA screening plate in which the majority of DBDpp clones were positive, the entire plate was sequenced.

CTLA4-Fc = target: T4, CTLA4-Fc (UniProt P16410 36-161, limits assumed); experiment: as above
T4 construct: purified recombinant target-Fc protein; not shown: Fc
Procedure: as §1, §2

[2] = target: T5, Fc-fusion protein comprising the extracellular domain of CD123 fused to human IgG1 Fc (human, UniProt P26951 19-305); experiment: flow cytometry, transiently transfected 293T cells incubated with CD123-Fc, detection with PE anti-human IgG; CAR expression by anti-FLAG
T5 construct: also called Fc-CD123; not shown: human IgG1 Fc
T5 sequence: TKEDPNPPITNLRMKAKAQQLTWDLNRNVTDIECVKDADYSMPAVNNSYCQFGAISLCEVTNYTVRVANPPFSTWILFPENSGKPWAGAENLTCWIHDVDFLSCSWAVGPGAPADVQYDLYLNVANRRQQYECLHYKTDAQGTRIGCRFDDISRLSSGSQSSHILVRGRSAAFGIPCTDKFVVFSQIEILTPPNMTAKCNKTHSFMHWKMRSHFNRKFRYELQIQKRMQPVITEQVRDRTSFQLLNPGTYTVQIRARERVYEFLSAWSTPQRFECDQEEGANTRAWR
Procedure: 293T cells were transiently transfected with pcDNA3 expression vectors encoding DBDpp containing CARs using (see, e.g., FIG. 5B) Lipofectamine 3000 (Life Technologies). After 24 hours, cells were collected using CellStripper™. Cells were assessed for CAR expression using a fluorescent-labeled anti-FLAG antibody. DBDpp containing CARs binding to CD123 was measured by incubating cells with a Fc-fusion protein comprising the extracellular domain of CD123 fused to human IgG1 Fc in cell culture media at 37° for 30 minutes, washing, and then detection with a PE anti-human IgG antibody. Both CD123 binding and CAR expression (FLAG Tag) were assayed by flow cytometry. Data are shown in FIG. 17, and each data point indicates the average FLAG expression and CD123-binding for each of the DBDpp-CARs from multiple experiments.

T1 sequence (Q9NZQ7 19-238 limits assumed): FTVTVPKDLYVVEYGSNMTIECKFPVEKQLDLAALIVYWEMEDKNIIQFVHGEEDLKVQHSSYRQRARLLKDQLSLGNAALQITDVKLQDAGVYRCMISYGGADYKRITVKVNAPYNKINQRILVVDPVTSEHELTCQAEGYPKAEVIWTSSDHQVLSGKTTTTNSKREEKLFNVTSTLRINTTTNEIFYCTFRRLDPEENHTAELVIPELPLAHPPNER
T4 sequence (P16410 36-161 limits assumed): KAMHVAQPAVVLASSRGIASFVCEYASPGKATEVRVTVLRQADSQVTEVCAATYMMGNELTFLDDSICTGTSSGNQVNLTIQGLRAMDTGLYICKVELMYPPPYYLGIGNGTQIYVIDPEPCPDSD
T2 sequence (Q07011 24-186 limits assumed): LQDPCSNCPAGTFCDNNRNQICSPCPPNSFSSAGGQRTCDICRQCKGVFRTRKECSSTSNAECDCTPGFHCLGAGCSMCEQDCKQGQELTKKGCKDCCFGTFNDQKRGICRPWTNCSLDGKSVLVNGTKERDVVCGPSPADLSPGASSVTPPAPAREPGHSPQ

B1: FLAG-α3D (other)
chain: MGSWAEFKQRLAAIKTRLQALGGSEAELAAFEKEIAAFESELQAYKGKGNPEVEALRKEAAAIRDELQAYRHN
notes: expressed and purified from E. coli; also called N-terminal FLAG tag fusion of a3D; alpha3D; not shown: N-terminal FLAG tag
binding result (PD-L1-Fc): no binding (tested: about 1000 nM)

B2: bb10 (designed binder)
chain: B1 chain with Q19E, E32L, K33G, A36W, S40M, Q43A, R57G, K58R, D65M
notes: F2NNK library clone
ELISA ratio (target to background) [1]: 5.27 ratio

B3: SEQ ID NO 45 (designed binder)
chain: MGSWVVFKVDLATIKYILEALGGSEAELAEFEGEIAGFEYSLQFYKGKGNPEVEALRKEAAAIRDELQAYRHN
ELISA ratio (target to background) (TIM3-Fc): 5.79 ratio

B4: SEQ ID NO 25 (designed binder)
chain: MGSWHEFHDRLQAIHERLYALGGSEAELAAFEKEIAAFESELQAYKGKGNPEVESLRIAAAHIRQVLQAYRHN
ELISA ratio (target to background) (CTLA4-Fc): 2.95 ratio

B5: cg06 DBDpp-CAR (other)
chain: MGSWDEFGRRLYAIEWRLYALGGSEAELAAFEKEIAAFESELQAYKGKGNPEVEKLREIAAVIRSNLQAYRHN
notes: expressed on Jurkat NFAT reporter cells; not shown: rest of the CAR (FLAG tag, linker, transmembrane and intracellular domains) not specified
binding result [2]: binds
